{"source": "the DeepSol protein solubility set", "data": [{"test": "soluble on expression in E. coli; label from the status in PepcDB or PDB records", "values": [{"sequence": "MSLHTSHVIPAPRIDVWEWHTRPGAVFRLTPPFLPLRPLEQATSLAKGTTVFALPAGLRWEARHDLSGYIQHHRFTDVCINAPVKSLASWRHIHDFTDHPSGTLITDTVHTRAPRTTLSPAFAYRQHQLINDIQAQQRFYELTRSNPTESTPLTIGLTGSRGLVGRALTAQLTTLGHTVVQLVRGESKPHQRHWDPAHPAPNLLEGLDALIHLAGEPILGRFNDAHKADIRDSRIEPTRQLSQLVQKSSTCRTMVSASAIGYYGHARGDEILDEGSTQGDDFLASVCEEWEAASRTDATSNKRIVNIRTGVVMSGRGGMLPVLKAVFSVGLGGPFRGSNPWMSWIAIDDLCDIYIRAVLDPKLSGAINAVAPNPIKNQDFVDALAKELKRPAKMTISSLGPAILLGQQGAKELALADQRVQPRVLNNLDHHFRYVDIRSCLAHELGGENLLDI", "soluble on expression in E. coli": "not soluble"}, {"sequence": "MGSDKIHHHHHHAQTCGATYITEFQYDLKKRTNWCNLLRLDAYVPIGTKGILEFASIHVYKTRPERIINDLQTFSNIEEDNLPCAIAVLGYTRLVGNVTLFAGIRNLNEDYFTTPCMSLFTNSSCGIFPTLSANYPIANYPLAALCLDYKMTLGRFGIESSLYNGKGYNGWSKGKHPFTFNPRKDGVFSITEINYQTEYGKCFGGFSLHTNGDMPDVAGEWKTREREKKVSPKMTFAWWGYAERKLWSRVRQEVNLLVQYTRTSSVFSECRNYMGAGVTWIYVPGGQKRHEAGLFLSAAQFKSCNEVAGEVTYRYSFNRDTYIQPAIHLIKNGGGLHEVFLIRMGYILNGGRVR", "soluble on expression in E. coli": "not soluble"}, {"sequence": "MAEGERLYLCGEFTKAIQSFTNALHLQSGDKNCLVARSKCYLKMGDLEKSLNDAEASLRNDPTFCKGILQKAETLYTMGDFEFALVFYHRGYKLRPDREFKVGIQKAQEAINNSVGSPSSIKLENKGDLSFLSKQAESKKAQQKHLPIKQLSYSTKHEIKRKGSLKSEKTVRQLLGELYVDKEYLEKLLLDEDLIKGTIKSGLTVEDLIMTGINYLDTRSNFWRQQKPIYARERDRKLMQEKWLRDRKRSPSQTAHYILKSLEDIDMLLTSGSADGSLQKAEKVLKKVLEWNQEEVPNKDELVGNLYSCIGNAQIELGQMVAALQSHRKDLEIAKEHDLPDAKSRALDNIGRVFARVGKFQQAIDVGGEDPSSQNHPGEDLALPRDWPLLLGAGPGVAGPELWGKVSAVR", "soluble on expression in E. coli": "soluble"}, {"sequence": "MDPFRFQVEARAGRARVGRLFTPHGAVETPLFMPVGTAGSVKGLMPKDLEAIGSQVLLTNTYHLLLRPGPERVRALGGLHGFAGWKGPWLTDSGGFQVMSLGHMRRIDEEGVVFQSHLDGRLIKLTPERSIAVQEALGADLIMAFDECPPYPSPREYLEASLERTLRWLERSLKAKTRPDQALFGIAQGGTDPELRRRSTLETIRFDLPGYAIGGLAVGEPKEAMFAMVELSTRLLPEDRPRYLMGVGHPEDLVAAMGLGVDLFDCVYPTRTGRFGSALVPEGRLNLKNARFLEDRRPLEEGCDCYTCQTFGRAYLAHLVRAGEMLGGILLSLHNLRHLHRLTEAARQAIREGRYGDFAREFARRRFGREVPPWFREALAAGGHG", "soluble on expression in E. coli": "soluble"}, {"sequence": "MKKINAIILLSSLTSASVFAGAYVENREAYNLASDQGEVMLRVGYNFDMGAGIMLTNTYNFQREDELKHGYNEIEGWYPLFKPTDKLTIQPGGLINDKSIGSGGAVYLDVNYKFVPWFNLTVRNRYNHNNYSSTDLSGELDNNDTYEIGTYWNFKITDKFSYTFEPHYFMRVNDFNSSNGKDHHWEITNTFRYRINEHWLPYFELRWLDRNVEPYHREQNQIRIGTKYFF", "soluble on expression in E. coli": "soluble"}, {"sequence": "MGSDKIHHHHHHMTIYTLSHGSLKLDVSDQGGVIEGFWRDTTPLLRPGKKSGVATDASCFPLVPFANRVSGNRFVWQGREYQLQPNVEWDAHYLHGDGWLGEWQCVSHSDDSLCLVYEHRSGVYHYRVSQAFHLTADTLTVTLSVTNQGAETLPFGTGWHPYFPLSPQTRIQAQASGYWLEREQWLAGEFCEQLPQELDFNQPAPLPRQWVNNGFAGWNGQARIEQPQEGYAIIMETTPPAPCYFIFVSDPAFDKGYAFDFFCLEPMSHAPDDHHRPEGGDLIALAPGESTTSEMSLRVEWL", "soluble on expression in E. coli": "not soluble"}, {"sequence": "MAHHHHHHMFLLCRTNLAKKIKDKIPYGVKQSQNYKDAKKQERLALEANRKLKESRGMLLDGKKNLFMCLRQNSDINWYRAGQILKHLEIHQRAKPDITPSLREKITNIANFVKKGR", "soluble on expression in E. coli": "soluble"}, {"sequence": "MSLKFTAIDFETANEKRNSPCSIGIVVVKDGHVVEKSHHLIRPKEMRFMPINIGIHGIRPAMVEKEPEFDKVWEKIKHYFDDTLVIAHNASFDISVLRKSAELYNIELPEFNYICTMKLARNFYKGIENAKLNTVNNFLGYEFRHHDALYDALACSNIMLSISKELKCKDITEISKLLGEGHHHHHH", "soluble on expression in E. coli": "not soluble"}, {"sequence": "MSSRPPFGIVKPSKPTGNPSSGSSDLDSTAEPSPHERRMDSQRASSGSDVHGHPSLGSQSHNLTSAQSEGRNAHKDLHERHVHPSQGYQRHGSKAPAHGHPSSQGARRSQHELSNFPKLLANLMQDTKATASASCASNQDTLQPTASTMSDGEPEEDKVKLCGNRLEVGVTDNLAGTQRRKEQQQLQGAQAKNDIIYTLSTDNSILDIDHQPKREIAFTHSLLNISKIVNRMIPIRCSMFPGKSWKDPNNLKRPSIAKVHRTNHANELRTARFKANEKCYLLSVCQLISLKNPTFQGLSDSLNSPGDKKVAAEKHTCEDRTRRPTFPLDAFCSTPNEQYETMLLIAKSRTLSARMNVKMLHFPLGLLALEFDGIDSDMPNPDFHDNVLGYRDPHTTTPDSSSDHAAANLPPGRTRDYIPRKAKAPYINYVHSLSVMVEPLPSPPECCHLGSAEPVRPNFADIGAWSGSPTNPQSPSA", "soluble on expression in E. coli": "not soluble"}, {"sequence": "MGSDKIHHHHHHMAHEAQKAIARNSLLIRSLPEQHVDALLSQAVWRSYDRGETLFLQEEKAQAIHVVIDGWVKLFRMTPTGSEAVVSVFTRGESFGEAVALRNTPYPVSAEAVTPCEVMHIPSPVFVSLMRRDPEICISILATTFGHLHSLVAQLEQLKAQTGAQRVAEFLLELCDCDTGACEVTLPYDKMLIAGRLGMKPESLSRAFSRLKAAGVTVKRNHAEIEDIALLRDYAESDPADSWSKS", "soluble on expression in E. coli": "not soluble"}, {"sequence": "MSLKPFGLFAICVAFAGCGDTSWWSKNDDPELKSEQIRKLIPSRVHDRQSWANDINDIMEKLKIPKTKDNVCSVVAIVDQESNFVANPVVAGLGEKAVKEVSTRLNEKFEEKLGTTIGGQVAGYFEDVLKNQPTPDDNYMSQMRRVRTEKDLDVLYRQIFDYMASHYHVSALTGAAKLVGQDIAEKMNPITTLGSMQVNIVYAKENKRVKLQSVNNLRDDLYTQYGGLYYGIHRLMLYQTSYDKPIYRFADYNSGMYSSRNAALQSMLNKLGDEQLTEDGDLLLYNKDGSIQSTRSSSEKALIKIFTLNNVLLTPNQIRTDLKQEKSQSFEQTPTYIAITKLYQKQTGKEAPYAMMPQVIISGPKLSRDYNTNWYASRVNGRYQTCMQRAKRIKEGHHHHHH", "soluble on expression in E. coli": "soluble"}, {"sequence": "MNDHLKRGNLLWEGSRMFLPEHKQSLLERKRLKQKLQKPILDPDKLEEMNQTLCAAMEFAQDITVSCFQDGEIVCCTGKICRYEEFEKAVWIKGDEDQLYKLKLDQVLDI", "soluble on expression in E. coli": "not soluble"}, {"sequence": "KLFEHTVLYDSGDAFFELKGNASMKLSPKAAIEVCNEAAKKGLWILGIDGGHWLNPGFRIDSSASWTYDMPEEYKSKIPENNRLAIENIKDDIENGYTAFIITLKM", "soluble on expression in E. coli": "soluble"}, {"sequence": "MAHHHHHHMLRRSVVNLQNPARVFRSAAKRQKLDEAVRVDQAGEVAAVRICKYQLLWMSPLDSGVPVVKEILRDELVHEEVMGHLARKHSVRLTLLDPLFHVGAFVMGSCTALLGKDAVMCCHAAVEVTIAQHYNDQLRELQSLEESEGASKGKDEKDWAEVMEYVARFRDEELHHQELGEQNGAENAPAYPLLYNGIRIMCSLGVALAKRI", "soluble on expression in E. coli": "not soluble"}, {"sequence": "MTRACNLYVFKNKYVSFNLLDSPNSNPKLLKISLPFNFMDEFEGLLKAVGSAPWYKLIGMVPKLQGDRVVVEMEIDRSKHLQALGTTHGGAIASVLDSAIGLNVNREVVKMGKTAVTAQLNIHYIRPVTEGKIVGVGMPMHIGSKVTVGYGEVRNEEGELVAAGTATFYIIDRRFRD", "soluble on expression in E. coli": "soluble"}, {"sequence": "MELATTQSVLMQIQPTIQRFARMLASVLQLEVEIVDENLCRVAGTGAYGKFLGRQLSGNSRLLRHVLETKTEKVVTQSRFDPLCEGCDSKENCREKAFLGTPVILQDRCVGVISLIAVTHEQQEHISDNLREFSDYVRHISTIFVSKLLEDQGPGDNISKIFATMIDNMDQGVLVVDDENRVQFVNQTALKTLGVVQNNIIGKPIRFRPLTFESNFTHGHMQHIVSWDDKSELIIGQLHNIQGRQLFLMAFHQSHTSFSVANAPDEPHIEQLVGECRVMRQLKRLISRIAPSPSSVMVVGESGTGKEVVARAIHKLSGRRNKPFIAINCAAIPEQLLESELFGYVKGAFTGASANGKTGLIQAANTGTLFLDEIGDMPLMLQAKLLRAIEAREILPIGASSPIQVDIRIISATNQNLAQFIAEGKFREDLFYRLNVIPITLPPLRERQEDIELLVHYFLHLHTRRLGSVYPGIAPDVVEILRKHRWPGNLRELSNLMEYLVNVVPSGEVIDSTLLPPNLLNNGTTEQSDVTEVSEAHLSLDDAGGTALEEMEKQMIREALSRHNSKKQVADELGIGIATLYRKIKKYELLNT", "soluble on expression in E. coli": "not soluble"}, {"sequence": "MGSDKIHHHHHHMSRAHVDHRDLVRFAEERVNLPKEKADEFRAQARRLREKLEGYLAEHPDFALKKMLLSGSLAKGTALRSLNDIDVAVYISGSDAPHDLQALLNYLAEKLRKAFPNFSPEQVQPQTYSVTVNFRGTGLNVDVVPVLYAGLPDWRGNLISQDDGSFLETSIPLHLECARKRKQAQPTHFAQVVRLIKYWARRMKQEHDGFRFKSFMIEMILAKLTDNGTDLSDYPEALQSFFTYVAESNLSERIVFEDYYQASTVAPSADRVQIIDPINASNNVARLYTAQNAAAIVDAALDAGDAIDAALKAPTKELTVHYWQKVFGSSFQG", "soluble on expression in E. coli": "not soluble"}, {"sequence": "MSLGPVVHQTSSRFRRRSAQPTWDMSDGCADAIAFRVDSEGIKLHGFGIYLPTEPDRRNFVGEIMMLSPDSSEKWTCLLRVTAEMSSEEKEVGIVRFPEYVLLSPGVTYAVKVNMMKNTKTFCGEGGVTQVHLLNGARLFFSGCSMSQNGTTVQRGQLPYLIYSILDQSNSLQIKQEGHHHHHH", "soluble on expression in E. coli": "soluble"}, {"sequence": "GPGSMSHKRPQSSAGESNGAVDLKTPRFDPVSLGLPAEFQLTDYTRLKGCSCKLPQPKLLALLQELSATPGQKDVGMDCSIVPLHHTNSKGEALFLVSTTDFFFPSVSDPFLQGQIGAANVLSDLYSMGIPDCDTMLMLLAASTEMDEHERLITTREIMKGFAERARLATTTVTGGQTVMNPWPLIGGVAMAVVSEAEMVRPTGLLCAGDILVLTKPLGCQVAVNLKQWLLRPSPLYEEAIAGHISPEEIEELYNMATDSMRRLNREGARLMRKHGAHGATDVTGFGILGHANNFGAAQAVGDAPRSLCLVLERLPMFKTAVAASKQMNDKYRLLEGYSAETSGGLLVAFPSTTAAAAFCAELTAVDGGCPSWIVGHVEDRATNAVDGVYARLKDGYEIVEV", "soluble on expression in E. coli": "soluble"}, {"sequence": "MGSDKIHHHHHHMTNDAIVIGSGIGGLVTATQLAAKGAKVLVLERYLIPGGSAGYFERQGYRFDVGASMIFGLGQNGTTNLLTRALTAVNVSQDAIADPVQIHYHLPQGLDLKVDRVYEKFLQNLIAHFPHEEKGIRRFYDECQKVFKCLNSMDLLSLEEPWYLLRVFFQHPLACLGLVKYLPQNAGDFARRYIKDPKLLKFIDMECYCWSVVPSDMTPMINAGMVFSDRHYGGVNYPKGGVGQIAQKLVEGLEKAGGKIQYKARVTKILTEKGKAVGVQLANGKVYRGKRIVSNATRWDTFEQLLPAEEMPLNEKKWQQNYQKSPSFLSLHIGVKESVLPVGTECHHILLEGWEKMTAVEGTIFVSIPTLLDPDLAPSGYHIIHAFTPHWIDDWQELSPSEYKAKKEEAAGRIIDRLEKIFPGLDAGLDYLEVGTPRTHRRFLGRQDGSYGPIPRRKLRGLLKMPFNRTAIPGLYCVGDSTFPGQGLNAVAFSGFACAHRIAVDLGF", "soluble on expression in E. coli": "not soluble"}]}]}
